Experiments:
PhLOX2 = target: T1, PhLOX2 (Pyropia haitanensis, UniProt R9UEL2); assay: UV absorbance of conjugated diene at […] nm, Lineweaver-Burk; format: biochemical; details: pH 8.0, 20°C, 12 μM enzyme, substrate 20-200 μM; O2 co-substrate
T1 construct: gene lox2; monomer by size exclusion

purified protein [1] = substrate: CCCCC/C=C\C/C=C\C/C=C\C/C=C\CCCC(=O)O; assay: purified protein; format: biochemical, Pyropia haitanensis; details: pH 8.0, 20°C, 12 μM enzyme, substrate 20-200 μM, O2 co-substrate
purified protein [2] = substrate: CC/C=C\C/C=C\C/C=C\C/C=C\C/C=C\C/C=C\CCC(=O)O; assay: purified protein; format: biochemical, Pyropia haitanensis; details: pH 8.0, 20°C, 12 μM enzyme, substrate 20-200 μM, O2 co-substrate
purified protein [3] = substrate: CC/C=C\C/C=C\C/C=C\C/C=C\C/C=C\CCCC(=O)O; assay: purified protein; format: biochemical, Pyropia haitanensis; details: pH 8.0, 20°C, 12 μM enzyme, substrate 20-200 μM, O2 co-substrate

Row | Km (PhLOX2) | Molecule | Km (purified protein [1]) | kcat (purified protein [1]) | kcat/Km (purified protein [1]) | Km (purified protein [2]) | kcat (purified protein [2]) | kcat/Km (purified protein [2]) | Km (purified protein [3]) | kcat (purified protein [3]) | kcat/Km (purified protein [3])
1 | 151 µM | CCCCC/C=C\C/C=C\C/C=C\CCCCC(=O)O [GLA] |  |  |  |  |  |  |  |  | 
2 |  | PhLOX2 (Pyropia haitanensis) (protein, monomer by size exclusion) MAHTGTLGGSGCGQPLVAALKAHRTVVDGTIDAPVEAVWAKLRDFGGWPAWWPAMGATAVTPPGPPAVGQERAFTANGRSYVEALTWLDEGAHLLEYRLVSADPPLLDAGARTTFEAVPAGARSTRLTVECAFQPAYNVDAGVIRGGQTAAYESIMEGLQHALVEGPPLRPLRLTVTKNELRREVTAGHLLLTMGGVVLHRLRLTGAGTPVSADAVTVQLSRADAELRLELLDAKDTPVAAGSVAVGALTTPPVTHGVVLSNPHGDPVGTYTVSVVNAPPSSTVEAATALLFSLGKSLAEQLLQTVFFMGHDDGRWAYGEYTAADGTALTMPKYCAVLPPSQAIRPERLGQLFARNAEFLYAQAELLKLLVDTNPPGLEELPQAVRDKLAKEAALQKKIKERVTHEPSPFRLTFGGDHPAPERVIETWRDDEEQAAQMIRGINPMKLRRVTDAAAELPPAFHGLRDDAGRDVAALAAANALFYADYAELMVGELDEETGAYHHQAESAVLDSTVGGVKYWYAPRLVVYKTLAGKLSFLGFTLTRRGDAPGDDEMYTAAGTPPVRYTLAKIHLTCADNQVHQFVSHLGMTHLLAEPFIVAAHNVLPPSHIVSALLAVHFQDTIGINFLARQTLVSTVAPLTDATFSVGTGHALSIFAAAYDGWDFLGDNFVGALAKRGFTADAAADGLHDFYYREDGFRVWNALTRYVSTVLHGHYGAGTAADDAVAADPVLAAWCAEMRDPAAAGVASFPAAFTTVGALVEAVVSIIFLCSAQHAAVNFPQRDYVAYVPNRPDSVRLPMPPRPAAGADNDEAVVGATLPDVAVSVFQTLFAHLLTTPSDAPVSSYAALKEDHPAAWGAFTADLAQLQRDIEARNAALVAANEAPYPYLAPENMPLSIDI | 114.17 µM | 47.5 s⁻¹ | 416000 M⁻¹ s⁻¹ | 91.59 µM | 12.6 s⁻¹ | 138000 M⁻¹ s⁻¹ | 54.09 µM | 62.5 s⁻¹ | 1.16e+06 M⁻¹ s⁻¹

From paper PMC4319731, “A Lipoxygenase from Red Alga Pyropia haitanensis, a Unique Enzyme Catalyzing the Free Radical Reactions of Polyunsaturated Fatty Acids with Triple Ethylenic Bonds” (PLoS ONE, 2015)
